How the values were obtained:
ADI-50024 = target: T1, ADI-50024; assay: SPR Carterra avidity, yeast anti-ID
T1 construct: anti-CD3 antibody made in CHO cells, captured by anti-human Fc
Method in brief: (§1)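 Fitted with a 1:1 binding model after double referencing: Carterra LSA kinetics at 25° C in HBSTE, with anti-idiotype analytes binding anti-CD3 antibodies (100 nM) captured via anti-human Fc on HC30M chip. Dissociation followed 300 s.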

ADI-70326 = target: T2, ADI-70326; assay: SPR Carterra avidity, yeast anti-ID
T2 construct: anti-CD3 antibody made in CHO cells, captured by anti-human Fc
Method in brief: as §1

ADI-70327 = target: T3, ADI-70327; assay: SPR Carterra avidity, yeast anti-ID
T3 construct: anti-CD3 antibody made in CHO cells, captured by anti-human Fc
T3 sequence (VH, as listed by the source limits assumed, chain 1 of 2): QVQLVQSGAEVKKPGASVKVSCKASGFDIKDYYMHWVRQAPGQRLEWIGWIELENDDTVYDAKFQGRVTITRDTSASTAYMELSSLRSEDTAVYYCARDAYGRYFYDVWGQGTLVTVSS
T3 sequence (VL, as listed by the source limits assumed, chain 2 of 2): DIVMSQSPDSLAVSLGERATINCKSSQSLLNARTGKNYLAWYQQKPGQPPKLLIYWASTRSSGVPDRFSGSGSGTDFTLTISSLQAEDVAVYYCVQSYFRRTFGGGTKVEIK
Method in brief: as §1

ADI-70330 = target: T4, ADI-70330; assay: SPR Carterra avidity, yeast anti-ID
T4 construct: anti-CD3 antibody made in CHO cells, captured by anti-human Fc
T4 sequence (VH, as listed by the source limits assumed, chain 1 of 2): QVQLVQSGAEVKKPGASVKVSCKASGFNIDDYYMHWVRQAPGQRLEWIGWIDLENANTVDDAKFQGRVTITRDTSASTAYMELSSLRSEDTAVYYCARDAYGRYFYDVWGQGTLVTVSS
Method in brief: as §1

ADI-26906 IgG = target: T5, ADI-26906 IgG; assay: SPR Carterra avidity, yeast anti-ID
T5 construct: anti-CD3 IgG
Method in brief: as §1

ADI-26919 = target: T6, ADI-26919; assay: SPR Carterra avidity, yeast anti-ID
T6 construct: anti-CD3 antibody made in CHO cells, captured by anti-human Fc
Method in brief: as §1

ADI-26916 IgG = target: T7, ADI-26916 IgG; assay: SPR Carterra avidity, yeast anti-ID
T7 construct: anti-CD3 IgG
T7 sequence (VH, as listed by the source, chain 1 of 2): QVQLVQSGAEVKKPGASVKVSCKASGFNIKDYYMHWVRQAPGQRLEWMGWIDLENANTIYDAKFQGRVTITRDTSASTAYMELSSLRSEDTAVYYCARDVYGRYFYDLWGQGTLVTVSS
T7 sequence (VL, as listed by the source, chain 2 of 2): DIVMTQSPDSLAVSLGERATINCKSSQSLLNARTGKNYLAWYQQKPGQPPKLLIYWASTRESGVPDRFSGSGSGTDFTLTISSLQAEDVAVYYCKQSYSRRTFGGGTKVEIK
Method in brief: as §1

ADI-48576 = target: T8, ADI-48576; assay: SPR Carterra avidity, yeast anti-ID
T8 construct: pH-dependent anti-CD3 antibody made in CHO cells
T8 sequence (VH, as listed by the source, chain 1 of 2): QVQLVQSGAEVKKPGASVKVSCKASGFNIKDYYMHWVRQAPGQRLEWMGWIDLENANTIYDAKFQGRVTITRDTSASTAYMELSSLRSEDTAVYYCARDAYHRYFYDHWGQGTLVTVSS
T8 sequence (VL, as listed by the source, chain 2 of 2): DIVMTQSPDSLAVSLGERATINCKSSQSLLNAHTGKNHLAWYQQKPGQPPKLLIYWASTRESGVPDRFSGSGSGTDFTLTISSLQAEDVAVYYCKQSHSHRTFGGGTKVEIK
Method in brief: as §1

ADI-48587 = target: T9, ADI-48587; assay: SPR Carterra avidity, yeast anti-ID
T9 construct: pH-dependent anti-CD3 antibody made in CHO cells
Method in brief: as §1

ADI-48592 = target: T10, ADI-48592; assay: SPR Carterra avidity, yeast anti-ID
T10 construct: pH-dependent anti-CD3 antibody made in CHO cells
Method in brief: as §1

ADI-48650 = target: T11, ADI-48650; assay: SPR Carterra avidity, yeast anti-ID
T11 construct: pH-dependent anti-CD3 antibody made in CHO cells
T11 sequence (VH, as listed by the source, chain 1 of 2): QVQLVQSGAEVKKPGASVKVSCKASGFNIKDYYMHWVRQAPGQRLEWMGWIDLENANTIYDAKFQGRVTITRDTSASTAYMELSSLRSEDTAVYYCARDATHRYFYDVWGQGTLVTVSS
T11 sequence (VL, as listed by the source, chain 2 of 2): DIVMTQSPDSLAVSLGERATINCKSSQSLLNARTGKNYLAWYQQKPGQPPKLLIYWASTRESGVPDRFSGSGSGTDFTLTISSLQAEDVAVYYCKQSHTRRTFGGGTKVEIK
Method in brief: as §1

ADI-74965 = target: T12, ADI-74965; assay: SPR Carterra avidity, yeast anti-ID
T12 construct: pH-dependent anti-CD3 antibody made in CHO cells
T12 sequence (VH, as listed by the source, chain 1 of 2): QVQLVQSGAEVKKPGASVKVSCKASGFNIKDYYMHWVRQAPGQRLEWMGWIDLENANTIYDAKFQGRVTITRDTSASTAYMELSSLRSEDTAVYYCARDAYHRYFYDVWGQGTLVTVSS
T12 sequence (VL, as listed by the source, chain 2 of 2): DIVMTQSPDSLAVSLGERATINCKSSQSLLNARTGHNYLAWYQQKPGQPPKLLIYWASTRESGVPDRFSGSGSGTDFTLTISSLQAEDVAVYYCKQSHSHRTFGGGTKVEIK
Method in brief: as §1

ADI-74968 = target: T13, ADI-74968; assay: SPR Carterra avidity, yeast anti-ID
T13 construct: pH-dependent anti-CD3 antibody made in CHO cells
T13 sequence (VL, as listed by the source, chain 2 of 2): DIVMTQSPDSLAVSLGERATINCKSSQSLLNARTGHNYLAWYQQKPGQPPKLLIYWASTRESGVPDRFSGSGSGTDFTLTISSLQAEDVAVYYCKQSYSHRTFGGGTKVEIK
Method in brief: as §1

ADI-76357 = target: T14, ADI-76357; assay: SPR Carterra avidity, yeast anti-ID
T14 construct: anti-CD3 antibody made in CHO cells, captured by anti-human Fc
T14 sequence (VH, as listed by the source, chain 1 of 2): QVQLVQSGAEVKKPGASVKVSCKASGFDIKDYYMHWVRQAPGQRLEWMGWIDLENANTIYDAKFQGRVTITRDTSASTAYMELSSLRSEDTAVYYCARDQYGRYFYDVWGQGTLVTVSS
Method in brief: as §1

ADI-76358 = target: T15, ADI-76358; assay: SPR Carterra avidity, yeast anti-ID
T15 construct: anti-CD3 antibody made in CHO cells, captured by anti-human Fc
T15 sequence (VH, as listed by the source, chain 1 of 2): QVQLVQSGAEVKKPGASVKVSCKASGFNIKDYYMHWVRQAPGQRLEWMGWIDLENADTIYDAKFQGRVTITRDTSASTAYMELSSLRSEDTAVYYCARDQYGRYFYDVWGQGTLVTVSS
Method in brief: as §1

ADI-76360 = target: T16, ADI-76360; assay: SPR Carterra avidity, yeast anti-ID
T16 construct: anti-CD3 antibody made in CHO cells, captured by anti-human Fc
T16 sequence (VH, as listed by the source, chain 1 of 2): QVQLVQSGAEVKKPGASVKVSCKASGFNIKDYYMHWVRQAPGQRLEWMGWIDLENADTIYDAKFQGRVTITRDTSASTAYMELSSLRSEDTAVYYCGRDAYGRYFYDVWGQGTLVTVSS
T16 sequence (VL, as listed by the source, chain 2 of 2): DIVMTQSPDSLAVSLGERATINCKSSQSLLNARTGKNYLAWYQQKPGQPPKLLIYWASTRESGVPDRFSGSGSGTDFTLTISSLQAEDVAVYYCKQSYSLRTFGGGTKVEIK
Method in brief: as §1

ADI-76361 = target: T17, ADI-76361; assay: SPR Carterra avidity, yeast anti-ID
T17 construct: anti-CD3 antibody made in CHO cells, captured by anti-human Fc
Method in brief: as §1

CTL-62223 = target: T18, CTL-62223; assay: SPR Carterra avidity, yeast anti-ID
T18 construct: also called mosunetuzumab
Method in brief: as §1

ADI-22523 Fab = target: T19, ADI-22523 Fab; assay: BLI; tip anti-ID IgG, solution ADI-22523 Fab
T19 construct: anti-CD3 Fab by papain digestion of the IgG
Method in brief: (§2)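 Anti-ID IgG was captured on AHC biosensors, equilibrated in assay buffer for 30 min, then baselined for 60 s. KD = koff/kon came from a 1:1 binding fit.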

ADI-22523 IgG = target: T20, ADI-22523 IgG; assay: BLI; tip anti-ID IgG, solution ADI-22523 IgG
T20 construct: anti-CD3 IgG
Method in brief: as §2

ADI-67450 = target: T21, ADI-67450; assay: SPR Carterra avidity, yeast anti-ID, *koff limit
T21 construct: anti-CD3 antibody made in CHO cells, captured by anti-human Fc
T21 sequence (VH, as listed by the source limits assumed, chain 1 of 2): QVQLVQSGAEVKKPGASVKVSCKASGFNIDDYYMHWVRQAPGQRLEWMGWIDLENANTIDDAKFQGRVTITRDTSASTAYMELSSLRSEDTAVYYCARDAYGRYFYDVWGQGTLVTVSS
Method in brief: as §1

ADI-67445 = target: T22, ADI-67445; assay: SPR Carterra avidity, yeast anti-ID, *koff limit
T22 construct: anti-CD3 antibody made in CHO cells, captured by anti-human Fc
Method in brief: as §1

ADI-67447 = target: T23, ADI-67447; assay: SPR Carterra avidity, yeast anti-ID, *koff limit
T23 construct: anti-CD3 antibody made in CHO cells, captured by anti-human Fc
Method in brief: as §1

ADI-26909 = target: T24, ADI-26909; assay: SPR Carterra avidity, yeast anti-ID, *koff limit
T24 construct: anti-CD3 antibody made in CHO cells, captured by anti-human Fc
T24 sequence (VH, as listed by the source limits assumed, chain 1 of 2): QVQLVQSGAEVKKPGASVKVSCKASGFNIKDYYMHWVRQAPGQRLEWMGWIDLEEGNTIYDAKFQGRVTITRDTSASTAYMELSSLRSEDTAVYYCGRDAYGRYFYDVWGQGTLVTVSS
Method in brief: as §1

ADI-26913 IgG = target: T25, ADI-26913 IgG; assay: SPR Carterra avidity, yeast anti-ID, *koff limit
T25 construct: anti-CD3 IgG
T25 sequence (VH, as listed by the source limits assumed, chain 1 of 2): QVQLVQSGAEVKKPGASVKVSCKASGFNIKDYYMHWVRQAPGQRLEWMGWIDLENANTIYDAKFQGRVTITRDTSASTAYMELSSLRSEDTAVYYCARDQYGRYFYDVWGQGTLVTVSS
Method in brief: as §1

ADI-26920 IgG = target: T26, ADI-26920 IgG; assay: SPR Carterra avidity, yeast anti-ID, *koff limit
T26 construct: anti-CD3 IgG
Method in brief: as §1

ADI-26921 IgG = target: T27, ADI-26921 IgG; assay: SPR Carterra avidity, yeast anti-ID, *koff limit
T27 construct: anti-CD3 IgG
T27 sequence (VH, as listed by the source limits assumed, chain 1 of 2): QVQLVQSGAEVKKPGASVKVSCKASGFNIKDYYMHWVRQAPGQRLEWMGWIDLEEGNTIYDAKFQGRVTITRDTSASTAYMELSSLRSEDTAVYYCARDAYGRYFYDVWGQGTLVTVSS
Method in brief: as §1

ADI-26924 = target: T28, ADI-26924; assay: SPR Carterra avidity, yeast anti-ID, *koff limit
T28 construct: anti-CD3 antibody made in CHO cells, captured by anti-human Fc
T28 sequence (VH, as listed by the source, chain 1 of 2): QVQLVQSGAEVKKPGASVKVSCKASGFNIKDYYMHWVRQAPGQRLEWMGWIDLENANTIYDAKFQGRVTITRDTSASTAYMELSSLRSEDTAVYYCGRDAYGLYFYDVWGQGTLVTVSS
Method in brief: as §1

ADI-26943 = target: T29, ADI-26943; assay: SPR Carterra avidity, yeast anti-ID, *koff limit
T29 construct: anti-CD3 antibody made in CHO cells, captured by anti-human Fc
Method in brief: as §1

ADI-74966 = target: T30, ADI-74966; assay: SPR Carterra avidity, yeast anti-ID, *koff limit
T30 construct: pH-dependent anti-CD3 antibody made in CHO cells
Method in brief: as §1

ADI-74967 = target: T31, ADI-74967; assay: SPR Carterra avidity, yeast anti-ID, *koff limit
T31 construct: pH-dependent anti-CD3 antibody made in CHO cells
Method in brief: as §1

ADI-76359 = target: T32, ADI-76359; assay: SPR Carterra avidity, yeast anti-ID, *koff limit
T32 construct: anti-CD3 antibody made in CHO cells, captured by anti-human Fc
T32 sequence (VH, as listed by the source, chain 1 of 2): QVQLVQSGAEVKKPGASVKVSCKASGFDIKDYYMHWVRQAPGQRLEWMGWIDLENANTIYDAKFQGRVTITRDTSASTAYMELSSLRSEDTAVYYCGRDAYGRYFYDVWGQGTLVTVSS
Method in brief: as §1

ADI-76362 = target: T33, ADI-76362; assay: SPR Carterra avidity, yeast anti-ID, *koff limit
T33 construct: anti-CD3 antibody made in CHO cells, captured by anti-human Fc
T33 sequence (VH, as listed by the source, chain 1 of 2): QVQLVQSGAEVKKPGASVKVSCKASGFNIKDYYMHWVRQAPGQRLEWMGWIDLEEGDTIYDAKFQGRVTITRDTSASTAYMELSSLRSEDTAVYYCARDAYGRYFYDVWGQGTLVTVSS
Method in brief: as §1

T1 sequence (VH, as listed by the source limits assumed, chain 1 of 2): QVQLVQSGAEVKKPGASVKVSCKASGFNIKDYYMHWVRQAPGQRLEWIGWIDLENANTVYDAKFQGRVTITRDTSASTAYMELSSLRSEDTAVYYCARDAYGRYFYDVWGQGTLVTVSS

B1: ADI-34138 (antibody, V domains shown)
VH: QVQLVQSGAEVKKPGSSVKVSCKASGGTFSSYAISWVRQAPGQGLEWMGGIIPIFGTANYAQKFQGRVTITADESTSTAYMELSSLRSEDTAVYYCARGAPNYYGSGGYDDGWFDPWGQGTLVTVSS
VL: EIVMTQSPGTLSLSPGERATLSCRASQSVSSSYLAWYQQKPGQAPRLLIYGASNRATGIPDRFSGSGSGTDFTLTISRLEPEDFAVYYCQQAHTALWTFGGGTKVEIK
notes: anti-ID IgG
B1 gave a Kd (ADI-50024) of 19 nM, a Kd (ADI-70326) of 42 nM and a Kd (ADI-70327) of 160 nM. For the same binder, the Kd (ADI-70330) was 45 nM, the Kd (ADI-26906 IgG) was 20 nM and the Kd (ADI-26919) was 33 nM. The Kd (ADI-26916 IgG) was 64 nM, the binding result (ADI-48576) was “binds” and the Kd (ADI-48587) was 29 nM. The binding result (ADI-48592) was “binds”, the Kd (ADI-48650) was 110 nM and the Kd (ADI-74965) was 34 nM. For the same binder, the Kd (ADI-74968) was 29 nM, the Kd (ADI-76357) was 17 nM and the Kd (ADI-76358) was 29 nM. It also gave a Kd (ADI-76360) of 57 nM, a Kd (ADI-76361) of 21 nM and a Kd (CTL-62223) of 46 nM. It also gave a Kd (ADI-22523 Fab) of 9.69 nM, a Kd (ADI-22523 IgG) of 0.57 nM and a Kd (ADI-67450) of 27 nM. For the same binder, the Kd (ADI-67445) was 27 nM, the Kd (ADI-67447) was 12 nM and the Kd (ADI-26909) was 12 nM. For the same binder, the Kd (ADI-26913 IgG) was 16 nM, the Kd (ADI-26920 IgG) was 10 nM and the Kd (ADI-26921 IgG) was 17 nM. It also gave a Kd (ADI-26924) of 16 nM, a Kd (ADI-26943) of 22 nM and a Kd (ADI-74966) of 15 nM. For the same binder, the Kd (ADI-74967) was 18 nM, the Kd (ADI-76359) was 9.5 nM and the Kd (ADI-76362) was 17 nM.
